# Assay results taken from US20200157197A1 (VENOMYX, published 2020).
# T1: Cobrotoxin (N. Atra, Miami Serpentarium) (Naja atra, UniProt P60770 22-83)
# T1 sequence: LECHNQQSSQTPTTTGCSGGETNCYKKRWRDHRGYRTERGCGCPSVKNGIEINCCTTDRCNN
# Molecular target: T1, Cobrotoxin (N. Atra, Miami Serpentarium)
# Assay: panning, phage ELISA and purified-VHH ELISA on coated toxin
binder,measurement,value
"Anti-cobrotoxin VHH (B9) (VHH, also called VHH candidate against cobrotoxin) VHH: QVQLQESGGGLAQAGGSLRLSCSASRNIFRVYGWYRQAPGKQREWVASITRDDSTAYADSVKGRFTISRDSAKNTMYLQMSSLRLEDTSTYYCAAQSISGTIQWGQGTQVTVSS",binding result,binds
